Assay results: publication PMC3601957, “Structural Basis of Rap Phosphatase Inhibition by Phr Peptides” (PLoS Biology, 2013)
Where a chain is given by its changes, count along the chain named. No end group written: not given here.

How the values were obtained:
[1] = target: T1, RapF^E303A (Bacillus subtilis, UniProt P71002, E303A); assay: Gel shift (native PAGE) titration, apparent Kd, RapF^E303A; type: binding, B. subtilis
T1 construct: 6xHis (N, cleaved yes); made in house; host or cells: Escherichia coli BL21 RIL
Description: (§1) The formation of complexes was analyzed by native polyacrylamide gel electrophoresis (Native-PAGE), similarly to that described by Salinas et al.. Briefly, mixtures of RapF (WT and mutants), ComA (10 µM of each protein), or Phr peptides (0.5 mM), as indicated, were incubated in buffer A (200 mM NaCl, 50 mM Tris-HCl [pH 8.0]) at room temperature for 30 min, separated by Native-PAGE and visualized by Coomassie blue staining. The peptide binding constants for RapF, RapF^D194A, RapF^N227A, RapF^E303K, and RapF^E303A were calculated following the same approach. Reaction mixtures containing 20 µg of protein and peptide concentrations ranging from 50 nM to 1.2 mM in 20 µl of buffer A were incubated for 15 min at room temperature. Reactions were separated in 8% acrylamide native gel (100 V, 4°C, 2 h) and visualized by Coomassie blue staining. Free protein was quantified using the Multigauge V2.1 software (Fujifilm) and the fraction of bound protein was estimated by subtracting free protein from the input protein. Data were plotted as a fraction of the Phr bound protein versus the Phr concentration, and were analyzed by the Graphpad prism software. The midpoint of the transition was taken as the apparent Kd. To calculate the Kd values, at least three independent experiments were analyzed.

[2] = target: T2, RapF^N227A (Bacillus subtilis, UniProt P71002, N227A); assay: Gel shift (native PAGE) titration, apparent Kd, RapF^N227A; type: binding, B. subtilis
T2 construct: 6xHis (N, cleaved yes); made in house; host or cells: Escherichia coli BL21 RIL
T2 sequence (P71002 whole entry N227A): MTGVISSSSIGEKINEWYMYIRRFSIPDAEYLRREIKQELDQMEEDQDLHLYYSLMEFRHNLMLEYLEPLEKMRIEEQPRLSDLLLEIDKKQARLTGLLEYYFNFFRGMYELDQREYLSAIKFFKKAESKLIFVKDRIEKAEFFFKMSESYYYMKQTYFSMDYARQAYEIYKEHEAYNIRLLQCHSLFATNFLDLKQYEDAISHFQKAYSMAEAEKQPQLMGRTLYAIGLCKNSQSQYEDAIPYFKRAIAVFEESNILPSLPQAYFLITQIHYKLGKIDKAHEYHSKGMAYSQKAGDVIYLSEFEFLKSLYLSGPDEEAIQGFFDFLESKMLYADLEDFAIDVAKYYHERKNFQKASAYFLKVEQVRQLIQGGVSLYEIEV
Description: as §1

[3] = target: T3, RapF^D194A (Bacillus subtilis, UniProt P71002, D194A); assay: Gel shift (native PAGE) titration, apparent Kd, RapF^D194A; type: binding, B. subtilis
T3 construct: 6xHis (N, cleaved yes); made in house; host or cells: Escherichia coli BL21 RIL
T3 sequence (P71002 whole entry D194A): as the sequence (P71002 whole entry N227A) above, with D194A, A227N counted along it
Description: as §1

[4] = target: T4, RapF (Bacillus subtilis, UniProt P71002); type: binding, B. subtilis; settings: wild-type RapF, at 12 µM PhrF; native PAGE titration
T4 construct: 6xHis (N, cleaved yes); made in house; host or cells: Escherichia coli BL21 RIL
T4 sequence (P71002 whole entry): as the sequence (P71002 whole entry N227A) above, with A227N counted along it
Description: as §1

[5] = target: T5, RapF^E303K (B. subtilis, UniProt P71002 1-381, E303K); assay: native gel or EMSA; Native-PAGE, Coomassie stained; RapF (WT or mutant) and ComA 10 µM each, Phr peptides 0.5 mM; buffer A (200 mM NaCl, 50 mM Tris-HCl pH 8.0), room temperature, 30 min; settings: both partners purified
T5 construct: RapF of Bacillus subtilis with Glu303 changed to Lys, made from pPROEX-RapF by site-directed mutagenesis; Same construct as m1 with the point mutation; also called RapF Glu303Lys; source: E. coli BL21 RIL, purified as native RapF; not shown: His6, N-terminal, cleaved
T5 sequence: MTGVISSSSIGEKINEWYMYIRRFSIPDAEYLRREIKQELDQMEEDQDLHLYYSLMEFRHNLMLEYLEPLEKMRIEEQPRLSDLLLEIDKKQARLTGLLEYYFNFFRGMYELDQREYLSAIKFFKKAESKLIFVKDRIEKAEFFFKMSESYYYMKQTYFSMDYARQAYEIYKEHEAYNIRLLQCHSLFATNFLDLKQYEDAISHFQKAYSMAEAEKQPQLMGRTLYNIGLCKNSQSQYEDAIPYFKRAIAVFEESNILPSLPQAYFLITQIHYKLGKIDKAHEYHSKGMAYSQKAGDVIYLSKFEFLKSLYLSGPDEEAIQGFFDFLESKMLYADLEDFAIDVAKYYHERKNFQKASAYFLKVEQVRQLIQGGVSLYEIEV

[6] = target: T6, RapF^N227A (B. subtilis, UniProt P71002 1-381, N227A); assay: as above; settings: both partners purified
T6 construct: RapF of Bacillus subtilis with Asn227 changed to Ala, made from pPROEX-RapF by site-directed mutagenesis; Same construct as m1 with the point mutation; also called RapF Asn227 to Ala mutant; RapF^N277A (misprint in the text); source: E. coli BL21 RIL, purified as native RapF; not shown: His6, N-terminal, cleaved
T6 sequence: T5 sequence with N227A, K303E

[7] = target: T7, RapF (B. subtilis, UniProt P71002 1-381); assay: as above; settings: both partners purified
T7 construct: RapF of Bacillus subtilis, amplified from genomic DNA and cloned in pPROEX-HTa; The text speaks of residues up to Val381, which fits the whole protein; also called wild-type RapF; native RapF; source: E. coli BL21 RIL, purified (HisTrap, TEV digestion, Superdex 200); not shown: His6, N-terminal, cleaved
T7 sequence: T5 sequence with K303E

[8] = target: T8, RapF^E303A (B. subtilis, UniProt P71002 1-381, E303A); assay: as above; settings: both partners purified
T8 construct: RapF of Bacillus subtilis with Glu303 changed to Ala, made from pPROEX-RapF by site-directed mutagenesis; Same construct as m1 with the point mutation; also called RapF Glu303Ala; source: E. coli BL21 RIL, purified as native RapF; not shown: His6, N-terminal, cleaved
T8 sequence: T5 sequence with K303A

[9] = target: T9, RapF^D194A (B. subtilis, UniProt P71002 1-381, D194A); assay: as above; settings: both partners purified
T9 construct: RapF of Bacillus subtilis with Asp194 changed to Ala, made from pPROEX-RapF by site-directed mutagenesis; Same construct as m1 with the point mutation; also called RapF Asp194Ala; source: E. coli BL21 RIL, purified as native RapF; not shown: His6, N-terminal, cleaved
T9 sequence: T5 sequence with D194A, K303E

ERGMT [PhrC]
Kd [1]: > 1.2 mM

QRGMI [PhrF]
Kd [2]: > 1.2 mM | Kd [3]: > 1.2 mM | RapF present in the free form [4]: less than 30%

B1: ComA (natural protein, B. subtilis, UniProt P14204 1-214, looked up)
chain: MKKILVIDDHPAVMEGTKTILETDSNLSVDCLSPEPSEQFIKQHDFSSYDLILMDLNLGGEVNGMELSKQILQENPHCKIIVYTGYEVEDYFEEAIRAGLHGAISKTESKEKITQYIYHVLNGEILVDFAYFKQLMTQQKTKPAPSSQKEQDVLTPRECLILQEVEKGFTNQEIADALHLSKRSIEYSLTSIFNKLNVGSRTEAVLIAKSDGVL
notes: also called RR ComA; full-length ComA; source: E. coli BL21 RIL, purified (HisTrap, TEV digestion, Superdex 200); not shown: His6, N-terminal, cleaved
binding result [5]: binds | binding result [6]: binds | binding result [7]: binds | binding result [8]: binds | binding result [9]: binds
